Where no end group is shown, it is not given here. [ ]: non-standard residue; d: D form. NMeR = CN[C@@H](CCCNC(=N)N)C(=O)O; aThr = C[C@H](O)[C@H](N)C(=O)O; Nva = CCC[C@H](N)C(=O)O; Ahx = NCCCCCC(=O)O; βAla = NCCC(=O)O
Tests used:
[1] = molecular target: T1, leptin receptor (ObR) naturally expressed on MCF-7, LN229 and LN18 cells (human); test: cell-based or functional assay
[2] = molecular target: T1, leptin receptor (ObR) naturally …; test: cell-based or functional assay; remark: listed apart in the source

EC50, proliferation of ObR-positive cancer cells in the absence of leptin [1]	IC50, proliferation of ObR-positive cancer cells in the presence of leptin (6 nM) [1]	IC100, proliferation of ObR-positive cancer cells in the presence of leptin (6 nM) [1]	IC50, proliferation and XTT metabolic activity assays, LN229 and MCF-7 cells with leptin [2]	Binder
> 1000 nM	0.2 nM	5 nM	–	[aThr]E[Nva]VALSR[Ahx]-NH2 (N-terminus assumed; SMILES CCC[C@H](NC(=O)[C@H](CCC(=O)O)NC(=O)[C@@H](N)[C@H](C)O)C(=O)N[C@H](C(=O)N[C@@H](C)C(=O)N[C@@H](CC(C)C)C(=O)N[C@@H](CO)C(=O)N[C@@H](CCCNC(=N)N)C(=O)NCCCCCC(N)=O)C(C)C) [peptide of amino acid sequence alloThr-Glu-Nva-Val-Ala-Leu-Ser-Arg-AcpNH2 [SEQ ID NO:49]]
> 500 nM	50 nM	100 nM	–	E[Nva]VALSR[Ahx]-NH2 (N-terminus assumed; SMILES CCC[C@H](NC(=O)[C@@H](N)CCC(=O)O)C(=O)N[C@H](C(=O)N[C@@H](C)C(=O)N[C@@H](CC(C)C)C(=O)N[C@@H](CO)C(=O)N[C@@H](CCCNC(=N)N)C(=O)NCCCCCC(N)=O)C(C)C) [peptide of amino acid sequence Glu-Nva-Val-Ala-Leu-Ser-Arg-AcpNH2 [SEQ ID NO:51]]

The remaining lines, values behind:

Binder	EC50, proliferation of ObR-positive cancer cells in the absence of leptin [1]	IC50, proliferation of ObR-positive cancer cells in the presence of leptin (6 nM) [1]	IC100, proliferation of ObR-positive cancer cells in the presence of leptin (6 nM) [1]	IC50, proliferation and XTT metabolic activity assays, LN229 and MCF-7 cells with leptin [2]
[dS]E[Nva]VALS[NMeR][βAla]-NH2 [peptide of amino acid sequence (D)-Ser-Glu-Nva-Val-Ala-Leu-Ser-N-MeArg-bAlaNH2 [SEQ ID NO:6]]	> 1000 nM	0.2 nM	< 1 nM	–
TE[Nva]VALSR[Ahx]-NH2 (N-terminus assumed; SMILES CCC[C@H](NC(=O)[C@H](CCC(=O)O)NC(=O)[C@@H](N)[C@@H](C)O)C(=O)N[C@H](C(=O)N[C@@H](C)C(=O)N[C@@H](CC(C)C)C(=O)N[C@@H](CO)C(=O)N[C@@H](CCCNC(=N)N)C(=O)NCCCCCC(N)=O)C(C)C) [peptide of amino acid sequence Thr-Glu-Nva-Val-Ala-Leu-Ser-Arg-AcpNH2 [SEQ ID NO:4]]	> 1000 nM	5 nM	50 nM	2 to 3 nM
TE[Nva][Nva]ALSR[Nva]-NH2 (N-terminus assumed; SMILES CCC[C@H](NC(=O)[C@H](CCCNC(=N)N)NC(=O)[C@H](CO)NC(=O)[C@H](CC(C)C)NC(=O)[C@H](C)NC(=O)[C@H](CCC)NC(=O)[C@H](CCC)NC(=O)[C@H](CCC(=O)O)NC(=O)[C@@H](N)[C@@H](C)O)C(N)=O) [peptide of amino acid sequence Thr-Glu-Nva-Nva-Ala-Leu-Ser-Arg-NvaNH2 [SEQ ID NO:47]]	> 1000 nM	1000 nM	–	–
